Test results from article PMC10482750, “Assessment of the roles of Spt5-nucleic acid contacts in promoter proximal pausing of RNA polymerase II” (The Journal of Biological Chemistry, 2023).
Positions count from the first letter of the chain named. Numbers in names are those of the source.

B1: DRB sensitivity-inducing factor (DSIF), wild type (Spt5 and Spt4) (complex)
chain 1: not shown
chain 2: MAFDAIPKDLRGLRACLVCSLVKSFDQFETDGCENCEEFLRMKNNKDNVYDHTSNNFDGIIALTTPTDSWVAKWQRLSRFTRGIYAISVSGTLPQSTLRDMKNRGIVYKSRDRSQR
notes: Spt5, Drosophila; Spt4, Drosophila; No tag cleavage is described; A ~100-kDa Spt5 degradation product lacking the acidic N-terminal region is in each preparation; also called WT DSIF; source: E. coli Rosetta (DE3) pLysS, purified (Talon, anti-FLAG)
B2: DSIF Spt4 (R79E, R82E, K109E) mutant (complex)
chain 1: not shown
chain 2: B1 chain 2 with R79E, R82E, K109E
notes: Spt5, Drosophila, wild type; as in m2; Spt4, Drosophila, three basic residues changed to glutamic acid; also called Spt4 mutant; source: E. coli, purified as WT DSIF (Talon, anti-FLAG)
B3: DSIF NGN-Asp mutant (complex)
chain 1: not shown
chain 2: B1 chain 2
notes: Spt5, Drosophila, two basic residues of the NGN domain changed to aspartic acid; d numbers are Drosophila Spt5; Spt4, Drosophila; as in m2; source: E. coli Rosetta (DE3) pLysS, purified (Talon, anti-FLAG)

Biological target: T1, negative elongation factor (NELF): NELF-A, NELF-B, NELF-D, NELF-E (Drosophila, UniProt Q86NP2 1-1251; Q9Y113 1-594; Q24134 1-578; P92204 1-280)
T1 construct: NELF-A, Drosophila; NELF-B, Drosophila; NELF-D, Drosophila; NELF-E, Drosophila; No tag cleavage is described; source: Sf9, baculovirus, purified (Ni-NTA, anti-FLAG); copies: + + +
Assay: native gel or EMSA; stalled Pol II elongation complexes plus purified WT or mutant DSIF and NELF together (supershift); room temperature; Torula yeast RNA added; 4% native polyacrylamide gel run at 4 °C
Conditions: both partners purified

T1 sequence (Q86NP2 whole entry, chain 1 of 4): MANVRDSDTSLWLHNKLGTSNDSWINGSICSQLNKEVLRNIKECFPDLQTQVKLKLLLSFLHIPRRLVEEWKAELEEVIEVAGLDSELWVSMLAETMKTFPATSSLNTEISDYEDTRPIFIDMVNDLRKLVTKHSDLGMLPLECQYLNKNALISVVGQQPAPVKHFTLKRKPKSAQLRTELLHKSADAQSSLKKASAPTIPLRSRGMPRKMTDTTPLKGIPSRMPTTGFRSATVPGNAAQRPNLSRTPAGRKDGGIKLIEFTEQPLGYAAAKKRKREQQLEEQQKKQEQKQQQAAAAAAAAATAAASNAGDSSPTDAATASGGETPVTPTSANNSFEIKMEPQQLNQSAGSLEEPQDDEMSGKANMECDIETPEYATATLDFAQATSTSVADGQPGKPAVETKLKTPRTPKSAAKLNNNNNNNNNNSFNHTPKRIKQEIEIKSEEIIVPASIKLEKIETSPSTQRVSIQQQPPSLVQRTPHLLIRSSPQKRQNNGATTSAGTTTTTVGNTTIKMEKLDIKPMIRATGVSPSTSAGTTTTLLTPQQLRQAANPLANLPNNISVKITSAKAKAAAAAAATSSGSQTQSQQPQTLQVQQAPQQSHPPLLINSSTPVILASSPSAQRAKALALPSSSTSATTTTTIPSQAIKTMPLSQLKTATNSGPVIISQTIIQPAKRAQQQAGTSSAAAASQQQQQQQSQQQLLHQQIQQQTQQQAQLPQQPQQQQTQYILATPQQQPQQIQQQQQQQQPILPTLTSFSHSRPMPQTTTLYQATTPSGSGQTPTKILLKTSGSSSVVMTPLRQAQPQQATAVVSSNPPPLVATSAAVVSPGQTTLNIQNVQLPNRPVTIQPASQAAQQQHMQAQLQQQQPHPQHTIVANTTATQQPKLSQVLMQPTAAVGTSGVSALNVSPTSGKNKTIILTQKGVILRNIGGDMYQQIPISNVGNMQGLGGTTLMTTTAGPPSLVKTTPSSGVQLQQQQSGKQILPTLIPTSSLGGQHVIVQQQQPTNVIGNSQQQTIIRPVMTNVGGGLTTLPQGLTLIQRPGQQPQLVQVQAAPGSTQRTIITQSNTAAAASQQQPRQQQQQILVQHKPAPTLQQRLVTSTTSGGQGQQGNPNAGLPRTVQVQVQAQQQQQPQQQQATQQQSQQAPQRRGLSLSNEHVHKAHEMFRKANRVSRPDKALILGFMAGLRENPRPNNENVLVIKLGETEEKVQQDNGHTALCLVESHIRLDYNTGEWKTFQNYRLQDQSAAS
T1 sequence (Q9Y113 whole entry, chain 2 of 4): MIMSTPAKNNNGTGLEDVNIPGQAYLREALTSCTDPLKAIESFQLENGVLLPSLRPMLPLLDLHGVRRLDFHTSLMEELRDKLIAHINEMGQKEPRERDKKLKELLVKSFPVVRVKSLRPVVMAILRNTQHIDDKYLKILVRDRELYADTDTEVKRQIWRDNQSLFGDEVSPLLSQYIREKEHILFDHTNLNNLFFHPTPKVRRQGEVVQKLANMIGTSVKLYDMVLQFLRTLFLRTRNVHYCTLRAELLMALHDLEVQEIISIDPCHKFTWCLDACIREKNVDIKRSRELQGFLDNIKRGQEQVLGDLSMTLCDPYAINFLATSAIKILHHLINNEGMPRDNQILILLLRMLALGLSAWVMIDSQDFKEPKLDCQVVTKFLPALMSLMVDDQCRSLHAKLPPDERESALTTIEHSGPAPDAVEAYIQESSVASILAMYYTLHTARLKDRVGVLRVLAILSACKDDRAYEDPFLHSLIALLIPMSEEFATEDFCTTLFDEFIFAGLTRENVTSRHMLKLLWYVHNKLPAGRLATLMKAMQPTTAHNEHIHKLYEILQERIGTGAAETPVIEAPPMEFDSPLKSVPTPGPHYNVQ
T1 sequence (Q24134 whole entry, chain 3 of 4): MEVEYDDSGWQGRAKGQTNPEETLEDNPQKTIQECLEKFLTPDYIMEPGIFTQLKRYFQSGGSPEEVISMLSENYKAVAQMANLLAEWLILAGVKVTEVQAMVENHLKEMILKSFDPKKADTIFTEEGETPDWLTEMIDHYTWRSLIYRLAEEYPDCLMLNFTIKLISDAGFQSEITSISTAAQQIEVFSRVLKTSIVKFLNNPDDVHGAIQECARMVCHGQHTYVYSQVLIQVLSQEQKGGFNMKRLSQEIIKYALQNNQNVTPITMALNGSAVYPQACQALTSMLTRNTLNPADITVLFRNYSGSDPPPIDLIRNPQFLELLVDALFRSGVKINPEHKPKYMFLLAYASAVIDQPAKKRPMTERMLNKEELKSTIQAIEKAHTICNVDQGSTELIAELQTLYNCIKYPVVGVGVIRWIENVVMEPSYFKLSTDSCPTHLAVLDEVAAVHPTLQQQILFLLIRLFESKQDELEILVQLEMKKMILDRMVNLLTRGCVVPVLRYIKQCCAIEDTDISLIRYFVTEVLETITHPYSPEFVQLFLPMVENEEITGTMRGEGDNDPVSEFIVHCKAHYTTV
T1 sequence (P92204 whole entry, chain 4 of 4): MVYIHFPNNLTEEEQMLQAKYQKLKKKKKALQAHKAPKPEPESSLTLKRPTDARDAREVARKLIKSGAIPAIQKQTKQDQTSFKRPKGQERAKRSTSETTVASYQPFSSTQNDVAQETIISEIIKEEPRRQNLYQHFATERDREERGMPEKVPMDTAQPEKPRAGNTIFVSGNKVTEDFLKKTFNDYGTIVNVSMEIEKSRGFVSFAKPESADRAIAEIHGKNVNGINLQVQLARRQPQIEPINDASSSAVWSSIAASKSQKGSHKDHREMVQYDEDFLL

Row | Binder | binding result
1 | B1 | binds
2 | B2 | binds
3 | B3 | binds
